The data set in a line: label from the status in PepcDB records.
As to “MAPMIPHPPAVLAHRLSEGQRLATPLMRALMRATGTQVDAAIARTIAELGAHCGADRTRVYRIEAGQVLDCTHEWCRSGISEIRPEMQRIPLGTLDRWMPILRRGEPVDVPDLHGLPEDDPAKQQMARHGIRALVLMPLTAGTALTGVVGLSLFRARRPVDPAEMALLHSIAEAMGAALARRDAERRAVAARSAARDVARNLERLARVTELMTNLVIVTDVEQQIVWVNRAFERQTGHSLEAIRGRNFAEVVRGPGTDPGVCAAVAEAIRTCSSCEGETINYTAAGQPYWIRFNAHPLSDADGRYAGHASVETVITDRKVLERELATRNAFLTAVLQTSVSAIVALNAEGGIVYANDEARRLLVLQPHRGGLRMEAVLETLDGRPLPEADMPSALVRATGAPLHDLRYAIRRPDGQFGILSINAAPLPQAADDARIVISVTDITHAEASAERLRRQAAEDPLTGLANRRALADAVETRLTEAAPFALVMLDLDNFKAVNDLQRHDTGDAVLRIAADRLRAVAGADCLVARMGGDEFMVLAPGTDAASAPRLAEALRAAISAPIEVGRQPVHLAASAGIALHPEHGTSMALLMTGADIALHAAKRAGRNRSVLLSQAQFAAEARRSAITQALAADVEADLRLVFQPQFRACGAFDGAEALLRWTDPRLGEIGPAEFIPIAEEAGLIQRIDAHVAVLAARQLGLWARRGWRHRLAVNASAQTFARAGFAEELLQHLAEEDVCPQQLVVELTDTSLATLSSVADHNIATLRRAGVGIAIDDFGTGYASLSYLHRIEATEIKIDRGFVAGLETAERRDSKPLIQAILSLAHALGLAVTAEGVETERQRSWLSAEGCDRLQGYLLGRPLPVEAFEAAFVTPAAVPG”, the protein production result is listed as “failed”.
For the sequence “MSTPIDTYWRLRLTEVAESLRANNFAVSLVDSCEEAGRVFLDDLLPASGASSVSFGGSMTLVKCGVPEALRQRADLQLLDTFDKNLSAAEMYERRRQSLLVDMFLTGTNAVTMDGKLINLDMIGNRVGAINFGPRNVVLFVGRNKVVDTVEDGMRRIKEYASPVNAIRLDKKTPCKKTAQCMDCKSPDRICNVWTITEKCFPSGRVHVILINEDAGY”, the protein production entry was “failed”.
In the case of “WSYEHLHLTNRIKLLYAPTFRDNELGMAKLHLDIAEMKQALGNEYQLILKLHPSISNDLEKLDDDFVIYVDKETPIETLLPVVDILITDYSSIPFEFALLQKPMIFFTYDLTEYNNARGLSDGFLETIPGPHVFTTTELIEVIQNNTFDLEKVRLFAEKWNKYSDGFSSERFVSFLKEQLEK”, the protein production entry is given as “failed”.
With “MGLLDHLWDDTVAGPRPENGLGKLRKHHTFSFRPSSGNDQSEAGSARSYGEDSLPEEAVKVTRSIMIIKPPGYQGSSAPASPAGSTPPLSPFSPPLSPFSANAGGKEPFRFRRRSTSDAFEKAAGGSETGPRSSPPTYGM”, the protein production result is given as “failed”.
On to “MFIPAAQSAYRTLRKTQPRVRLNAIFKNGYSSKVEYKPIRSVLVANRGEIAIRVFRACTELGIKSVAVYSEQDKMHMHRQKADESYIVGKGLPPVEAYLNIPELIRVCKENDVDAVHPGYGFLSERSDFAQAVIDAGLRFIGPSPEVVQKMGDKVAARVAAIEAGVPIVPGTDGPVTTKEEALEFCKKHGLPVIFKAAYGGGGRGMRVVRKMEDVEESFQRASSEAKAAFGNGAMFIEKFIERPRHIEVQLLGDKAGNVVHLYERDCSVQRRHQKVVEIAPAPRLPIEIRDKMTEAAVRLARHVGYENAGTVEFLCDESGNFYFIEVNARLQVEHTVTEEITGIDLVQSQIRVAEGMTLPELGYTQDKIVPRGYAIQCRVTTEDPANDFQPNTGRLEVFRSGEGMGIRLDSASAYAGAIISPYYDSLLVKVISHASDLQSSASKMNRALREFRIRGVKTNIPFLLNVLENQKFLHGVLDTYFIDEHPQLFKFKPSLNRAQKLLNYMGEVLVNGPQTPLATTLKPALVSPHVPEVPLDLSPEAIEREERGEAKVTEPPKGLREVLVCEGPEAFAKEVRNRKELLLMDTTFRDAHQSLLATRVRSHDLLKISPYVTHKFNNLYSLENWGGATFDVALRFLHECPWERLEEMRKRIPNIPFQMLLRGANAVGYTSYPDNVVYKFCELAVQTGMDIFRVFDSLNYLPNLILGMEAAGKAGGVVEAAISYTGDVSDPKRTKYDLKYYTNLADELVKAGTHVLCIKDMAGLLKPESARLLITAIRDKHPDIPIHIHTHDTSGAGVASMLACANAGADVVDVAVDSMSGMTSQPSMGAVVASLQGTPLDTNLDLRTVSEYSAYWEQTRTLYAPFECTTTMRSGNADVYLNEIPGGQYTNLQFQAFSLGLGDFFEDVKKAYREANLLLGDIIKVTPSSKVVGDLAQFMVQNDLTADQVLERAEELSFPKSVVEYLQGSIGIPHGGFPEPLRSRVLKDMPRIEGRPGAELKDLDFDKLKKELQESHTCVTNRDVMSAALYPQVTNDFLNFREKYGPVDKLDTRIFLTGPKVGEEFDVPLERGKTLSVKALAVSADLKPNGIREVFFELNGQLRAVHILDKEAVKEIHVHPKANKSNKSEVGAPMPGTVIDIRVKVGDKVEKGQPLVVLSAMKMEMVVQSPLAGVVKKLEIANGTKLEGEDLIMIIE”, for which the protein production entry is on record as “failed”.
Regarding “MKANLERVPIRIGSSWRYKKIDGVEKNCHWHFHNEYELVLFRKNNAKGMVGHFERVIEKNTLWLIPPKMPHAIELLEEKELQCESHIIWLPKEWVENMIFSCTELRRMGELFKRSSNGLCFSTSTAEKVYQLIEKLFKDSILDDLGYLIQILGCLCSDKETRPLQLFSKQEASDKEGKEK”, the protein production result was “failed”.
The result for “MTDDVTNVEQPSTASEQQPQDVPAAEPSAAKKRRANKAKSKATAAAIEQRLGHSFADPSLLTTAFTHVSALKSARRTDSYQRLEFLGDHVLGLIVSDMLYRAFPDADEGELSKRLADLVRKETCADVARSLDLVEGIKLGTVGAGAGAKLRKSVLGDICEAVIGAIYLDGGYEAASDFVRRNWTERMRKPARSLRDPKTVLQEWAQARGLPTPVYREVERTGPHHDPQFRVAVILPGLEPAEGLGGSKRAAEKVAASAMLAREGVGTGGNDG” reads “failed”; that for “PFYYRLHFCDTMELFIETLTGTCFELRVSPFETVISVKAKIRRLEGIPICRQHLIWNNMELENDYCLNDYNISEGCTLKLVLAMRGGPINTRRVPTDDPLR”, “failed”.
With “MINQRMIHMKNTKLLLAIATSAALLTGCQNTHGIDTNMAISSGLNAYKAATLSDADAKAIANQGCAEMDSGNQVASKSSKYGKRLAKIAKALGNNINGTPVNYKVYMTSDVNAWAMANGCVRVYSGLMDMMNDNEIEGVLGHELGHVALGHSLAEMKASYAIVAARDAISATSGVASQLSRSQLGDIAEGAINAKYSRDKESEADDFSFDLLKKRGISTQGLVGSFETLASLDGGRTQSMFDSHPPSTERAQHIRDRIASGKLEHHHHHH”, the protein production result is listed as “failed”.
Regarding “MSYNVAILMSTYNGMDYLREQIESIRSQTYKQWNLYIRDDGSSDNTIDLIKTFVHQDTRIHFINADKQVNRGVKRSFLNLLSSVKADFYMFCDQDDYWLPNKVKLTLDAMISDYHNKPRLVFTNMNLVDSNLKVLDKASLSAVNISYWTSKDQLMFDNIVTGCTVMINNQLKQYVFPISAKKIVMHDWYIAQLASQLGDIQYVTDPTILYRQHESNQVGVNKSLFGKVKKLARFNDFQTGVILQISQGRLTQKKSQVVFSKTTQAFLNWNFTCPLILKVLPIIQNNFKKHTWPGTIALNLALLRRKKS”, the protein production entry is reported as “failed”.
As for “QKKDTSNHFHVFVGDLSPEITTEDIKAAFAPFGRISDARVVKDMATGKSKGYGFVSFFNKWDAENAIQQMGGQWLGGRQIRTNWATRKPPAPKSTYESNTKQ”, the protein production result is recorded as “not failed”.
Regarding “MYTITDIAPTDAEFIALIAALDAWQETLYPAESNHLLDLSQLPPQTVIALAIRSPQGEAVGCGAIVLSEEGFGEMKRVYIDPQHRGQQLGEKLLAALEAKARQRDCHTLRLETGIHQHAAIALYTRNGYQTRCAFAPYQPDPLSVFMEKPLFADLRSAAL”, the protein production entry was “not failed”.
Consider “MSGEKIDITPKKDGGVLKLIKKEGQGVVKPTTGTTVKVHYVGTLENGTKFDSSRDRGDQFSFNLGRGNVIKGWDLGVATMTKGEVAEFTIRSDYGYGDAGSPPKIPGGATLIFEVELFEWSAEDISPDRDGTILRTIIVEGSKNSFPNDTSKVLAHCVGTYQGTEFYNREVNFHIGEGSEEGLPEGVERALRRFQLGEKSKIEIRGHKYTYGNSPPAGSNIPVNATLEFTIFLKEFEKVPATWEMTAEEKLDAAKQAKDRGTMYLQKGNLKLAYNKYKRAEEVLEYEKSTDPEKMAERETILNGAYLNLSLVCSKQNEQLECIKWCDKVLETKPGNVKALYRKATALLTMNEVRDAMKLFEKIVEVEPENKAAAQQIIVCRNTIREQNERDKKRFKNLFAKISTEEDKPTNTVEDEDEIVASTSGSSTSNA”, for which the protein production entry is recorded as “not failed”.
As for “MLKVLFVPLNRNYVFDYIDDWKNIVADSLSRAGLSSEILIWPSTIKPSMKCFNWARKQYLAPCIIENMGNMFYDYLNEYFIVGIGYIDGYDYGLNFVFGEASPINRIAVVFTRRLDPRFYGEEPNYNLYLERVAKEIVHELGHLLGLSHCKRRTCVMSFSNSVYEVDAKTRFFCETCSNTLRKLNVLEHHHHHH”, the entry is “failed”.
Take “MALAVYLVPLPGLRASGHAALALLVFAVTMWATEAVPLAVTSLIILFAQPLIGVESFENAVIGFANPILFLMIGGFIMAEAIRKSGLAQRFTYYLLGRLGTSPERGLFVSIFSTGLLSAWIENVVAFAMLLPIIKEIVDIMGCSEPEKGKSNYAKAMILGASFGSLAGGFGTEIGTAPNLMAAAYTSIPFLNWMIFGLPLSIAMLLVTWFLLMRIFPSEVRALENGDALIGERIRMMGSMSRDEKLSAGILLFAILLWVTAGFTGINSYSVSLIAAVMFIFAGVITWKDAQKNIDWGLVVFFGGALSLGSALLKTGAAAWIIDKLVGMLGSDPSTVIVMLVLMAVAVIITQVMSNIALSAILVPLSVTLASAQHQPIGVYAVPVAIACSLSFMLPMADPTVAMAYGSGYVKLRDIPRAGIPIIAVGIILTVLVITTLAAPFIS”: the protein production entry is on record as “failed”.
Consider “MWNLETDRVIKEIEKSNGKNIVFHAPEGLKLAVEKEIEKINDYFNSTKNLIMWGAPCYGACDLCDHELKYNNIDLIIHYGHEELPYAKPDIPTIFIHCYYIYDEIEQNNILNKIDEYLQNNPNTIITTTIQFKELLKKYNPNIILGCRANISNKPKSELEQGTEKETENSKILYIGTGRFHPLMLCYKFKKSVNLFNPTSKEFSAISEEEVNKFIKKRIGAISKLLINPPKKIGVVLSTKKGQNRINVYNKIINLLKDNNIEYMPIILNNASPDNLFYDVSAYIICACPRIVLDDYLNYNKTLLTPKEFEMYIKKDFEYVFDEILFDDFEP”, for which the protein production entry is given as “failed”.
Turning to “MSLNTSIYGLIGEKLGHSHSSYIHKLIFEKVGIKGIYNLFEVPKEKLKESVDTFKIIKCGGLNVTIPYKVEVMKELYEISEKARKIGAVNTLKFSREGISGFNTDYIGFGKMLSKFRVEIKNNICVVLGSGGAARAVLQYLKDNFAKDIYVVTRNPEKTSEIYGEFKVISYDELSNLKGDVIINCTPKGMYPKEGESPVDKEVVAKFSSAVDLIYNPVETLFLKYARESGVKAVNGLYMLVSQAAASEEIWNDISIDEIIVDEIFEVLEEKIKSEGHHHHHH”, the protein production entry is given as “not failed”.
As for “MTFGEKLLNAASTRGRLCVGIDPHESLLTSWGLPVNVDGLAEFSRACVEAFADTVALVKPQVAFYERFGSAGFAILEETIQTLRERGCLVVSDAKRGDIGSTMAGYASAWLDPASPLSSDAVTVSPYLGFHSLDPVFELAEQHGRGVFVLAATSNPEARELQDQQNADGVSISQQIVDQAAALNAPYMAQGKAGNIGVVIGATLSKPPRLSTLGGAILMPGVGAQGGTASDVDEIAGDMAHLAFPNVSRSILATGPDIAEMKNSVAKNAADFPGFPRS”, the entry is “failed”.
For the sequence “MITIDPEYFEILKEFGAERVVRCYQCGTCTGICPVSTTDASFPRKPVLLSRFGVGEVIENFEEAWLCLSCNLCTEFCPRDVKPSETMLAIKRVLVENGKTPPYIRDFFQLEHHHHHH”, the protein production entry was “failed”.

The record behind these values is a protein production outcome set (Wang et al. 2014).
